In paper PMC8564726, “Heterodimerization of H3K9 histone methyltransferases G9a and GLP activates methyl reading and writing capabilities” (The Journal of Biological Chemistry, 2021):
“Also recorded” adds a separate entry of the source.

What was measured:
[1] = tested on: H3K9me1 monomethylated mononucleosomes; assay: Fluorescence polarization binding to H3K9me1 mononucleosome
From the text: (§1) Histone proteins and nucleosomes were purified as described ([11], [26]) with modifications (see Supporting methods). For fluorescence polarization, nucleosomes were reconstituted with a 5ʹ fluoresceinated DNA template. H3K9 dimethylation was installed via Methyl-Lysine Analog (MLA) technology as described ([10], [26]). K9 MLA-monomethylated H3 was purchased from Active Motif. H3K27A was introduced by site-directed mutagenesis and purified as described ([26]).
(§2) Polarization assays with fluoresceinated H3_1–20 K9me1 or K9me2 peptides, 147 bp 601 DNA template, and core nucleosomes were performed and Kd values estimated as described ([11]) with the following modifications: The reaction buffer was 100 mM Tris pH 8, 100 mM KCl, 1 mM MgCl2, 20 μM ZnSO4, 10 mM BME, 0.1% NP-40. The concentration of peptides and nucleosomes was 150 nM and 200 nM for DNA. Polarization measurements were conducted on a Biotek Cytation 5 (peptide and nucleosome) or Molecular Devices Spectramax (DNA) plate reader with low-volume plates (Corning) in either 10 μl (peptide, nucleosome) or 40 μl (DNA) total volume.

H3_1–20 K9me2 peptide = assay: Fluorescence polarization binding to H3K9me2 peptide; settings: listed as G9a
Protocol: as §2

[2] = tested on: H3K9me2 dimethylated mononucleosomes; assay: Fluorescence polarization binding to H3K9me2 mononucleosome
From the text: as §1, §2

H3_1–20 K9me1 peptide = assay: Fluorescence polarization binding to H3K9me1 peptide; settings: listed as G9a
Protocol: as §2

[3] = target: unmethylated (H3K9me0) mononucleosomes; assay: Fluorescence polarization binding to unmethylated mononucleosome; settings: 147 bp 601 DNA 5ʹ fluorescein-labeled nucleosomes, 150 nM, pH 8, 100 mM KCl, 0.1% NP-40, 95% CI (μM): G9a 6.4-8.6, G9a-GLP 5.6-7.6, GLP-GLP 17.4-41.5, read-out: Kd, unmethylated (me0) mononucleosome
From the text: as §1, §2

H3_1–20 peptide = assay: H3 tail peptide methylation kinetics (multiple turnover); assay type: biochemical; settings: Michaelis–Menten, 9 μM 3H-SAM + 1000 μM cold SAM, 0.4 to 0.8 μM enzyme, pH 8, duplicates, 95% CI: G9a-G9a 24.6-34.6, GLP-GLP 9.5-15.5, G9a-GLP 26.0-34.5, G9aS-GLP 20.5-28.3, listed as G9a
Protocol: Substrate peptides or nucleosomes were mixed in a solution containing 9 μM tritiated S-Adenosyl Methionine (SAM, PerkinElmer) cofactor, and reactions were initiated upon addition of 0.4 to 0.8 μM enzyme. Peptide reactions were supplemented with 1000 μM cold SAM to fully saturate the SAM-binding pocket (Fig. S3). Due to signal limitations, nucleosome reactions were not supplemented with SAM (see Supporting methods). Reactions were run in 100 mM Tris pH 8, 100 mM KCl, 1 mM MgCl2, 20 μM ZnSO4, 10 mM BME and quenched with laemmli buffer. Peptide reactions were performed as described ([11]). Nucleosome methylation reactions were read out via autoradiography as described ([11]), except that proteins were separated on an 18% SDS PAGE gel.
All methylation reactions (except Fig. S4A) were performed under Multiple Turnover conditions ([25]). To determine initial rates, methylation time courses were traced at various concentrations of H3K9-containing substrate while keeping the concentration of SAM and enzyme constant. Plots of initial rate versus concentration H3K9 substrate measured in duplicate or triplicate were fit to V = Vmax∗[S]/(KM + [S]) using Prism software to extract KM and kcat (or kobs) values as well as the 95% confidence interval bounds of the fit. See Supporting methods for special considerations for nucleosome kinetics.

B1: G9a-G9a: homodimer of G9a truncated to the C-terminal ANK and SET domains (ANK-SET) (protein)
chain: MRGLPRGRGLMRARGRGRAAPTGGRGRGRGGAHRGRGRPRSLLSLPRAQASWAPQLPAGLTGPPVPCLPSQGEAPAEMGALLLEKEPRGAAERVHSSLGDTPQSEETLPKANPDSLEPAGPSSPASVTVTVGDEGADTPVGAASLIGDEPESLEGDGGRIVLGHATKSFPSSPSKGGACPSRAKMSMTGAGKSPPSVQSLAMRLLSMPGAQGAATAGPEPSPATTAAQEGQPKVHRARKTMSKPSNGQPPIPEKRPPEVQHFRMSDDMHLGKVTSDVAKRRKLNSGSLSEDLGSAGGSGDIILEKGEPRPLEEWETVVGDDFSLYYDAYSVDERVDSDSKSEVEALAEQLSEEEEEEEEEEEEEEEEEEEEEEEEEDEESGNQSDRSGSSGRRKAKKKWRKDSPWVKPSRKRRKREPPRAKEPRGVNGVGSSGPSEYMEVPLGSLELPSEGTLSPNHAGVSNDTSSLETERGFEELPLCSCRMEAPKIDRISERAGHKCMATESVDGELLGCNAAILKRETMRPSSRVALMVLCEAHRARMVKHHCCPGCGYFCTAGTFLECHPDFRVAHRFHKACVSQLNGMVFCPHCGEDASEAQEVTIPRGDGGTPPIGTAAPALPPLAHDAPGRADTSQPSARMRGHGEPRRPPCDPLADTIDSSGPSLTLPNGGCLSAVGLPPGPGREALEKALVIQESERRKKLRFHPRQLYLSVKQGELQKVILMLLDNLDPNFQSDQQSKRTPLHAAAQKGSVEICHVLLQAGANINAVDKQQRTPLMEAVVNNHLEVARYMVQLGGCVYSKEEDGSTCLHHAAKIGNLEMVSLLLSTGQVDVNAQDSGGWTPIIWAAEHKHIDVIRMLLTRGADVTLTDNEENICLHWASFTGSAAIAEVLLNAQCDLHAVNYHGDTPLHIAARESYHDCVLLFLSRGANPELRNKEGDTAWDLTPERSDVWFALQLNRKLRLGVGNRAVRTEKIICRDVARGYENVPIPCVNGVDGEPCPEDYKYISENCETSTMNIDRNITHLQHCTCVDDCSSSNCLCGQLSIRCWYDKDGRLLQEFNKIEPPLIFECNQACSCWRSCKNRVVQSGIKVRLQLYRTAKMGWGVRALQTIPQGTFICEYVGELISDAEADVREDDSYLFDLDNKDGEVYCIDARYYGNISRFINHLCDPNIIPVRVFMLHQDLRFPRIAFFSSRDIRTGEELGFDYGDRFWDIKSKYFTCQCGSEKCKHSAEAIALEQSRLARLDPHPELLPDLSSLPPINT
- binding to H3K9me1 nucleosomes, in words [1]: decreases compared with unmethylated nucleosomes
- affinity for H3K9me2 peptide, in words (H3_1–20 K9me2 peptide): no discernable affinity for me1 or me2 peptides; also recorded: does not recognize H3K9me1/2 peptides
- binding to H3K9me2 nucleosomes, in words [2]: decreases compared with unmethylated nucleosomes
- affinity for H3K9me1 peptide, in words (H3_1–20 K9me1 peptide): no discernable affinity for me1 or me2 peptides; also recorded: does not recognize H3K9me1/2 peptides
- Kd [3]: 6 to 7 µM
- kcat, H3_1–20 peptide (H3_1–20 peptide): ~0.55 s⁻¹
